From patent publication US20200140562A1 (Innovent, published 2020) come the findings set out here.

Experiment [1] addresses T1, human OX40 on cells (CHO-hOX40, 293HEK-hOX40, Jurkat-hOX40, activated primary CD4+ T cells) (human, UniProt P43489 29-277).
T1 construct: whole, on cells; The cell type is told in each assay; also called CHO-OX40
T1 sequence (looked up): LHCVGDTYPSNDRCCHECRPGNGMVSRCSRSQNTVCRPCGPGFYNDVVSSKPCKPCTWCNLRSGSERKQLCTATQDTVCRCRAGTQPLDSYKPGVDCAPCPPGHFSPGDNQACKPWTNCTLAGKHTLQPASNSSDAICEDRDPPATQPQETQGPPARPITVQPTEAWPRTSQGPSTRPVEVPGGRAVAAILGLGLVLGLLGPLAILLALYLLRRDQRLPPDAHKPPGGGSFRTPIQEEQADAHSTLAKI
Kind of experiment: flow cytometry, CHO-hOX40, 1.5625 nM. (Flow cytometry measures light scatter and fluorescence of single cells or particles in a stream.)

The target of experiment [2] is T1, human OX40 on cells (CHO-hOX40, …). Briefly: flow cytometry, activated CD4+ T cells, donor 2, 100 nM.
The target is the same in experiment [3]. Kind of experiment: flow cytometry, CHO-hOX40, 0.09765625 nM.
Experiment [4] shares this target. Kind of experiment: flow cytometry, CHO-hOX40, 12.5 nM.
Experiment [5] has the same target. Kind of experiment: flow cytometry, CHO-hOX40, 0.78125 nM.
The target is the same in experiment [6]. Kind of experiment: flow cytometry, 293HEK-hOX40, 1.6 nM.
Experiment [7] has the same target. Kind of experiment: flow cytometry, CHO-hOX40, 50 nM.
Experiment [8] shares this target. Kind of experiment: flow cytometry, CHO-hOX40, 6.25 nM.
Experiment [9] shares this target. Kind of experiment: flow cytometry, CHO-hOX40, 0.1953125 nM.
Experiment [10] has the same target. Briefly: flow cytometry, CHO-hOX40, 25 nM.
The target is the same in experiment [11]. Briefly: flow cytometry, CHO-hOX40, 100 nM blocker, competitor OX40L-hFc-fluorescein.
For experiment [12] the target is unchanged. Kind of experiment: flow cytometry, CHO-hOX40, 0.048828125 nM.
Experiment [13] has the same target. Briefly: flow cytometry, 293HEK-hOX40, 40 nM.
The target is the same in experiment [14]. Kind of experiment: flow cytometry, 293HEK-hOX40, 8 nM.
The target is the same in experiment [15]. Kind of experiment: flow cytometry, 293HEK-hOX40 cells.
Experiment [16] shares this target. Kind of experiment: flow cytometry, CHO-hOX40, 3.125 nM.
For experiment [17] the target is unchanged. Briefly: flow cytometry, CHO-hOX40, 100 nM.
For experiment [18] the target is unchanged. Kind of experiment: flow cytometry, CHO-hOX40, 0.390625 nM.
The target is the same in experiment [19]. Kind of experiment: flow cytometry, CHO-hOX40, 200 nM.
Experiment [20] has the same target. Kind of experiment: flow cytometry, CHO-hOX40, 0.024414063 nM.
Experiment [21] shares this target. Kind of experiment: flow cytometry, 293HEK-hOX40, 200 nM.
Experiment [22] shares this target. Briefly: flow cytometry, activated CD4+ T cells, donor 1, 100 nM.

B1: IgG1 control (antibody, V domains shown)
VH: EVRLLESGGGLVQPGGSLRLSCAASGFTFSNYAMGWVRQAPGKGLEWVSAISGSGGSTYYADSVKGRFTTSRDDSKNALYLQMNSLRAEDTAVYYCARGGPGWYAADVWGQGTTVTVSS
VL: DIQMTQSPSSLSASVGDRVTITCRASQSISSYLNWYQQKPGKAPKLLIYAASSLQSGVPSRFSGSGSGTDFTLTISSLQPEDFATYYCQQADLPAFAFGGGTKVEIKR
notes: Negative control; The printed entries seem to begin with a leader peptide
For the molecule B1, the MFI in experiment [1] was 1930 MFI; in experiment [2], 1710 MFI; in [3], 2380 MFI; in [4] it was 1630 MFI; in experiment [5], 1680 MFI; in [6], 5630 MFI. Moreover, the MFI in [7] was 1700 MFI; in [8] it was 1600 MFI; in experiment [9], 1510 MFI; in [10], 1560 MFI; in [12], 2020 MFI; in [13], 25200 MFI. The MFI is 5310 MFI in experiment [14]; 1750 MFI in experiment [16]; 1720 MFI in experiment [17]; 1710 MFI in experiment [18]; 2820 MFI in experiment [19]; 2070 MFI in experiment [20]. Besides, the MFI in [21] was determined as 11100 MFI; in experiment [22], 6310 MFI. Further, in [11], the “MFI of OX40L signal on CHO-OX40 cells” value was determined as 35100 MFI. In experiment [15], the binding result was “no binding (tested: 200 nM)”.
